Results as given in paper PMC4023160.
One block for each substance: values may come before it.

Columns and labels:
ClpP protease [1] = biological target: ClpP protease (UniProt P0A6G7); assay: HDX-MS; BAP (100 pmol) with ClpP (200 pmol), 3 min at 30°C in low salt buffer A (50 mM Tris pH 7.5, 25 mM KCl, 20 mM MgCl2, 2 mM DTT) with ATPγS, diluted 20-fold into D2O buffer, 60 s exchange; mass of full length BAP
[2] = biological target: BAP (ClpB with the ClpA tripeptide for ClpP binding), wild type (E. coli | not stated); assay: negative-stain EM single-particle reconstruction; BAP(HAP)-ClpP complexes formed in 20 mM Tris-HCl pH 7.5, 20 mM KCl, 15 mM MgCl2, 1 mM DTT, 2 mM ATPγS; stained with 2% uranyl acetate; side views of 2:2 complexes cut into 1:1 halves; sixfold symmetry imposed or none
ClpP protease [3] = biological target: ClpP protease (UniProt P0A6G7); assay: as above
[4] = biological target: HAP (Hsp104 with the ClpA tripeptide for ClpP binding) (S. cerevisiae); assay: as above
[5] = biological target: BAP-E432A (repressed mutant) (E. coli | not stated); assay: as above
[6] = biological target: BAP Trap (E279A/E678A) variant (E. coli | not stated); assay: cryo-EM structure; BAPtrap-ClpP and ClpB alone, vitrified, in the presence of ATPγS; side views only

ClpP protease, sequence (P0A6G7 15-207): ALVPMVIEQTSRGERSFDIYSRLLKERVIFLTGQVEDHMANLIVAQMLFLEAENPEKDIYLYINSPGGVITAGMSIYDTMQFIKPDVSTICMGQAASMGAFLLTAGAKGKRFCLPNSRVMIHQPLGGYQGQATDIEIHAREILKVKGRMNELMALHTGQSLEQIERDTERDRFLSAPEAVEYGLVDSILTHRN

- amide protons in BAP protected from exchange by ClpP (amide protons) (ClpP protease [1]): 30
- stoichiometry N [2]: 6
- stoichiometry N (BAP hexamers per ClpP double-heptamer) (ClpP protease [3]): 2
Substance: BAP (ClpB with the ClpA tripeptide for ClpP binding), wild type

- stoichiometry N [4]: 6
Substance: HAP (Hsp104 with the ClpA tripeptide for ClpP binding)

- stoichiometry N [5]: 6
Substance: BAP-E432A (repressed mutant)

- stoichiometry N [6]: 6
Substance: BAP Trap (E279A/E678A) variant
